The target in data set [1] is T1, RAC incubated with LPMO9B (Thermothelomyces thermophilus, UniProt G2QCJ3).
T1 construct: made in house; host or cells: Myceliophthora thermophila C1 strain W1L#100.1Δpyr5ΔAlp1
T1 sequence (G2QCJ3 19-323): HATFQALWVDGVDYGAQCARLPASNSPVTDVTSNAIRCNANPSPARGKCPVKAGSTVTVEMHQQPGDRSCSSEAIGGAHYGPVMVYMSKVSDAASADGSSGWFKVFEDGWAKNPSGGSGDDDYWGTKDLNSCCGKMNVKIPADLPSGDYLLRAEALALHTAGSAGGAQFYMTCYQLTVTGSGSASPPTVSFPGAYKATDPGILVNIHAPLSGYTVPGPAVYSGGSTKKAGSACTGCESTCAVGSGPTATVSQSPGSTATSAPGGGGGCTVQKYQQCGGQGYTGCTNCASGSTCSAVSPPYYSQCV
The experiment in a line: RAC hydrolysis assay with LPMO9B and PPO7 or AbTyr in the presence of phenolic reducing agents. Type of data set: biochemical, Myceliophthora thermophila. Conditions: for Activity: total release of non-oxidized and C1-oxidized gluco-oligosaccharides from RAC: LPMO9B alone = 100%, or with added enzyme, pH 5.0, 50° C., 24 h. The method, then: Phenolic reducing agents were obtained from Sigma-Aldrich (St. Louis, Mo., USA). RAC was prepared as described above and dissolved in 50 mM phospate buffer (pH 5.0) to a final concentration of 1.5 mg/ml. Copper chloride was added to a final concentration of 2.5 μM and a phenolic reducing agent to a final concentration of 2 mM. LPMO9B (5 μg/ml) with or without PPO7 (5 μg/ml) or AbTyr (7.5 U/ml) were added and incubated for 24 h at 50° C. in a head-over-tail rotator in portions of 1 mL total volume (Stuart® rotator, Bibby Scientific LTD, Stone, UK) at 20 rpm. Products were analysed by HPAEC and MALDI-TOF MS as described previously. (Frommhagen M, Sforza S, Westphal A H, Visser J, Hinz S W, Koetsier M J et al. Discovery of the combined oxidative cleavage of plant xylan and cellulose by a new fungal polysaccharide monooxygenase. Biotechnology for Biofuels. 2015; 8:101. doi:10.1186/s13068-015-0284-1). The Activity denoted as Activity * represents total release of non-oxidized and C1-oxidized gluco-oligosaccharides from RAC incubated with LPMO9B in the presence of a phenolic reducing agent and with addition of either AbTyr or PPO7. […] Standard deviations were less than 2%.

For data set [2], the target named is T1, RAC incubated with LPMO9B. The experiment in a line: RAC hydrolysis assay with LPMO9B and PPO2, PPO7 or AbTyr in the presence of sinapic acid or syringic acid. Particulars: for Activity: total release of non-oxidized and C1-oxidized gluco-oligosaccharides from RAC: LPMO9B 5 μg/ml alone = 100%, or with added enzyme, pH 5.0, 50° C., 24 h. Type of data set: biochemical, Myceliophthora thermophila. The method, then:
Reducing agents sinapic acid and syringic acid were obtained from Sigma-Aldrich (St. Louis, Mo., USA). RAC was prepared from Avicel by swelling it in phosphoric acid, (Zhang Y H P, Cui J, Lynd L R, & Kuang L R (2006) A transition from cellulose swelling to cellulose dissolution by o-phosphoric acid: Evidence from enzymatic hydrolysis and supramolecular structure. Biomacromolecules 7(2):644-648.). RAC was dissolved in 50 mM phospate buffer (pH 5.0) to a final concentration of 1.5 mg/ml. Copper chloride was added to a final concentration of 2.5 μM and dimethoxy containg reducing agent sinapic acid or syringic acid to a final concentration of 2 mM. LPMO9B (5 μg/ml) with or without PPO2 (5 μg/ml), PPO7 (5 μg/ml) or AbTyr (7.5 U/ml) were added and incubated for 24 h at 50° C. in a head-over-tail rotator in portions of 1 mL total volume (Stuart® rotator, Bibby Scientific LTD, Stone, UK) at 20 rpm. Products were analysed by HPAEC and MALDI-TOF MS as described previously. (Frommhagen M, Sforza S, Westphal A H, Visser J, Hinz S W, Koetsier M J et al. Discovery of the combined oxidative cleavage of plant xylan and cellulose by a new fungal polysaccharide monooxygenase. Biotechnology for Biofuels. 2015; 8:101. doi:10.1186/s13068-015-0284-1). The Activity denoted as “Activity*” represents total release of non-oxidized and C1-oxidized gluco-oligosaccharides from RAC incubated with LPMO9B in the presence of sinapic or syringic acid as a reducing agent and with addition of either AbTyr, PPO7 or PPO2. […] Standard deviations were less than 2%.

A short description of data set [3]: Catechol oxidase activity assay: initial rate of 3-methoxycatechol oxidation at 400 nm (pH, copper and temperature optima). In kind it is biochemical. As for the experimental part: PPO activity was determined by measuring the initial rate of 3-methoxycatechol oxidation at 400 nm (extinction coefficient used: ε 1200 M^−1cm^−1). One unit of activity is defined as the amount of PPO activity that oxidizes 1 μmol of 3-methoxycatechol to quinone per minute. Substrate was used at a concentration of 4 mM.
The pH optima were determined by measuring the initial rate of 3-methoxycatechol oxidation with varying pHs, at room temperature and using a CuSO4 concentration of 10 μM. The pH was varied in the range of pH3-9 using Carmody buffers. Enzyme loading was applied resulting in A400 absorbance values in the range of 0.1-1. Protein concentration was determined using the BCA method.
Optimal copper concentrations for the PPOs were determined at the optimal pH by varying the concentration of CuSO4 in the range of 1-1000 μM. In these experiments the pH was controlled using 50 mM Bis-Tris buffer pH 7.0.
Temperature optima were determined by measuring A400 absorbance after 1 h incubation at temperatures in the range of 20 to 70° C. In these experiments the pH was controlled using 50 mM Bis-Tris buffer pH 7.0. Copper concentrations of (20 or 50 μM) were used to prevent chemical oxidation as background activity at higher copper concentrations.

Data set [4] can be described thus: Conversion of syringic acid, sinapic acid and syringol by crude PPOs, absorbance at 400 nm. Type of data set: biochemical. Particulars: 4 mM substrate, crude PPO 8.2 μg/mL, pH 6.0 or 7.0, 50 μM CuSO4, room temperature, 2, 22 and 118 h. As for the experimental part: Syringic acid, sinapic acid and syringol (4 mM) were incubated with crude PPO2, 4, 6 and 7 from Example 5 in 100 mM BisTris buffer pH 6.0 or 7.0 with 50 μM CuSO4. Crude PPOs were dosed on target protein with a final concentration of 8.2 μg/mL. Substrate blanks prepared without the addition of enzyme and enzyme blanks without the addition of substrate were included. Incubations were performed in microtiterplates with a total reaction volume of 150 μL at room temperature for approximately 120 h. After 2, 22 and 118 h absorbance at 400 nm was measured.

B1: LPMO9B: Myceliophthora thermophila lytic polysaccharide monooxygenase, mature amino acid sequence SEQ ID NO: 93 (protein, listed as Myceliophthora thermophila)
chain: T1 sequence (G2QCJ3 19-323)
On to B1, for which the “Activity in the absence of a reducing agent” value in data set [1] (no reducing agent) and in data set [2] (no reducing agent) was “no activity was detected” each time. In addition, the “Activity: total release of non-oxidized and C1-oxidized gluco-oligosaccharides from RAC” value in data set [1] (reducing agent 3,4-dihydroxy-5-methoxybenzoic acid 2 mM), in data set [1] (reducing agent 3,4-dihydroxy-5-methoxycinnamic acid 2 mM), in data set [1] (reducing agent 3,4-dihydroxybenzoic acid 2 mM), in data set [1] (reducing agent 3-hydroxy-4-methoxycinnamic acid 2 mM), in data set [1] (reducing agent 3-methylcatechol 2 mM) and in data set [1] (reducing agent 4-allyl-2,4-methoxyphenol 2 mM) was 100% throughout. In addition, the “Activity: total release of non-oxidized and C1-oxidized gluco-oligosaccharides from RAC” value in data set [1] (reducing agent 4-hydroxy-3-methoxyphenylactone 2 mM), in data set [1] (reducing agent caffeic acid 2 mM), in data set [1] (reducing agent coniferyl aldehyde 2 mM), in data set [1] (reducing agent ferulic acid 2 mM), in data set [1] (reducing agent gallic acid 2 mM) and in data set [1] (reducing agent guaiacol 2 mM) was 100% throughout. Also, the “Activity: total release of non-oxidized and C1-oxidized gluco-oligosaccharides from RAC” value in data set [1] (reducing agent hesperidin 2 mM), in data set [1] (reducing agent homovanillic acid 2 mM), in data set [1] (reducing agent vanillic acid 2 mM), in data set [2] (reducing agent sinapic acid 2 mM) and in data set [2] (reducing agent syringic acid 2 mM) was 100% throughout.

B2: PPO6: Myceliophthora thermophila C1 polyphenoloxidase with demethylating activity, mature form SEQ ID NO: 41 (protein, listed as Myceliophthora thermophila)
chain: AVKTVVITATTTVCPLSTRVCHGSSMISQSTNAPCSESTGITGSQSTAVTIPQSTDIISSQFSQFTDTTSSLSTGVACSSSPCPSNSQSTGTTSFESTGTTISQPTAVTNSSSTCLTSSQSTDAPSSESTGITISQSTGVTSSQSMSTPTSKSTAVPSSQSARVSTTSSSAKPSSTTETRPEPTLPNRAYPADIVDKLRDSGVDKLKEYLKSNPSNTGCTLENASIRREWSDLSVAEREEYIAAVKCLQSASPKSSKQQVPGARSRFDDFVATHINQTDSIHYTANFLSWHRYYVWAYEKALREECGYTGFQPYWNWDRYAADPANSPLFSGNSSSLSGNSVNGGCVTTGPFADMKVNLGPGASLAYNPRCLKRNISKSYAAMTTADKTYALITGSADIARFQDTMQAVPGVHAGGHFTIGGDPGGDVYSSPGDPAFWLHHAMIDRVWWIWQTHGLPGRLSEVAGSVAGSSRPGSGKDLVNLGVNGPAVAIENLLNTVGGLDGKMCYIYL
In data set [3] (3-methoxycatechol oxidation, room temperature, 10 μM CuSO4, Carmody buffers pH3-9), B2 showed a pHopt of 7.0. In data set [3] (>50% of maximum activity), the T range was 20-50 °C and the pH range is reported as 6.0-8.5. In addition, the “[CuSO4] range” value in data set [3] (>90% of maximum activity) is 50 to 1000 µM. In addition, the Topt in data set [3] (A400 after 1 h incubation, 20 to 70° C., 50 mM Bis-Tris pH 7.0, 20 or 50 μM copper) came out at 30 °C. Besides, the “[CuSO4]opt” value in data set [3] (at optimal pH, 50 mM Bis-Tris buffer pH 7.0, CuSO4 varied 1-1000 μM) amounted to 200 µM. In addition, in data set [4], the “Conversion of substrates (absorbance at 400 nm)” value is “able to convert syringic acid, sinapic acid and syringol”.

These data come from patent US20190002846A1, “POLYPEPTIDES HAVING DEMETHYLATING ACTIVITY” (Genencor International B.V., priority 2015, published 2019).
